Experimental findings from article PMC12445016 (Nature, 2025) are described below.

A word on the IC50: it is the point on the concentration scale where inhibition reaches its midpoint. Read a high IC50 as weaker potency in that assay. For orientation: EC50 means the concentration at which the effect is half-maximal.

For test [1], the target named is GRK5-phosphorylated ACKR3·CXCL12_(LRHQ) (UniProt P25106). Briefly: pull-down.
Test [2] has as its target T1, preactivated arrestin3 (truncated after residue 392) (bovine, UniProt P32120).
T1 chain: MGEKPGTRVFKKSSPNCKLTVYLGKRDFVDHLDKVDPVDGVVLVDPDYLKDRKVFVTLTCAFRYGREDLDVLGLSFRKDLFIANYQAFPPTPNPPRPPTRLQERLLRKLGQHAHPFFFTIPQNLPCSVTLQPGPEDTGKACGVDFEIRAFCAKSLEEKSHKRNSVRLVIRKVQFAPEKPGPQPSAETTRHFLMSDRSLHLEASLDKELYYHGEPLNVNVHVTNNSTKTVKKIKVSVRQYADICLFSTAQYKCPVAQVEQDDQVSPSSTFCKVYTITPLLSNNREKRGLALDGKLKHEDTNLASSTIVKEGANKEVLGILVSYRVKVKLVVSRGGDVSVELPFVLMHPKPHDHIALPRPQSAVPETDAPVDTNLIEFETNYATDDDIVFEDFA
As to the kind of experiment: ELISA. A general note: In an ELISA, binding on a coated surface is turned into a signal by an enzyme label.

The target in test [3] is T2, biotinylated Arr3* loaded with inositol hexakisphosphate (IP6) (bovine, UniProt P32120, biotin (EZ-link sulfo-NHS-Biotin; sites not stated)).
T2 chain: T1 chain
As to the kind of experiment: ELISA.

In the case of “preactivated arrestin2 (I386A, V387A, F388A mutations in its C-tail) (from UniProt P17870 1-418) (natural protein)”, the percent more pulled down than by pACKR3 (GRK2) in test [1] was determined as 30%. Consider “preactivated arrestin3 (truncated after residue 392) (from UniProt P32120 1-392) (domain or fragment)”, for which the percent more pulled down than by pACKR3 (GRK2) in test [1] was found to be 40%.

B1: Fab7 (antigen binding fragment that recognizes active arrestin2 and arrestin3) (Fab, V domains shown)
VH: EVQLVESGGGLVQPGGSLRLSCAASGFNVSSSYIHWVRQAPGKGLEWVASISSYYGYTYYADSVKGRFTISADTSKNTAYLQMNSLRAEDTAVYYCARKSMYHRGWGWLSWVYGAMDYWGQGTLVTVSS
VL: DIQMTQSPSSLSASVGDRVTITCRASQSVSSAVAWYQQKPGKAPKLLIYSASSLYSGVPSRFSGSRSGTDFTLTISSLQPEDFATYYCQQSYYYPITFGQGTKVEIK
Consider B1, for which the IC50 in test [2] was ~90 nM. For the same molecule, the concentration giving a half-maximal response (EC50) in test [3] was ~10 nM.
